Like-named read-outs stand apart in the source and are kept apart here.
Tests used:
[1] = target: Fructose 1,6-bisphosphatase II from Francisella tularensis (glpX gene product) (Francisella tularensis); test: SEC
[2] = target: Fructose 1,6-bisphosphatase II from Francisella tularensis (glpX gene product) (Francisella tularensis); test: SEC; remark: listed apart in the source

Substance: Fructose 1,6-bisphosphatase II from Francisella tularensis (glpX gene product) (enzyme)
- stoichiometry N [1]: 4
- stoichiometry N [2]: 2

From article PMC5698383 (Applied Biochemistry and Biotechnology, 2017)
